Holding throughout (assay): ELISA: 500 ng peptide coated per well, 29E4 at 40 ng/mL, HRP goat anti-rabbit Ig 1:16,000, ABS 450 nm, duplicates [CONT. 2]
A general note: ELISA stands for enzyme-linked immunosorbent assay.

Experiment [1] concerns the target T1, P2 (alanine substituted, FIG. 3 panel E).
T1 construct: not the overlapping peptide P2 of panel A; also called Q212 to alanine
The text has this:
(§1) HRP Goat anti-rabbit Ig was applied at 1:16,000 dilution in all reactions.
(§2) Peptides were synthesized to achieve ≥70% HPLC purity by a commercial vendor (GenScript Biotech, Piscataway, NJ). Peptides were reconstituted in either water, or with addition of acetonitrile, methanol, 10% acetic acid, or DMSO, depending on the overall charge of each peptide. Key residues required for mAb binding were probed by ELISA using overlapping peptides, truncated peptides and alanine substituted peptides. Reactions were performed in duplicate using NUNC 96-well flatbottom MaxiSorp plates (Thermo Scientific). After coating each well with 500 ng of peptide in 100 μL coating buffer (50 mM NaHCO₃, pH 9.6), the plates were sealed and incubated at 4° C. overnight. […] Plates were then washed once with wash buffer, incubated with 100 μL mAb 29E4 (serially diluted from 1 mg/mL) for 1 hour at 37° C. Plates were further washed four times with wash buffer, and then incubated at 37° C. with 100 μL of a horse radish peroxidase (HRP)-conjugated secondary antibody against the primary antibody, diluted 1:16,000 according to manufacturer's protocols (KPL, Inc., Gaithersburg, MD). After washing four times with wash buffer, 100 μL of K-Blue Aqueous TMB substrate (Neogen, Lexington, KY) was added to the plates and incubated uncovered for 30 minutes at room temperature. To stop the reaction, 100 μL of 2 N Sulphuric acid was added to each well and absorbance were measured immediately at 450 nm. All dilutions of reagents were performed in ELISA diluent (20% NGS in 1×PBS with 0.1% Triton-X 100).

The target in experiment [2] is T2, P3 (alanine substituted, FIG. 3 panel E).
T2 construct: not the overlapping peptide P3 of panel A; also called R213 to alanine
Text: as §1, §2

The target in experiment [3] is T3, P4 (alanine substituted, FIG. 3 panel E).
T3 construct: not the overlapping peptide P4 of panel A; also called Q214 to alanine
Text: as §1, §2

The target of experiment [4] is T4, P6 (alanine substituted, FIG. 3 panel E).
T4 construct: not the overlapping peptide P6 of panel A; also called S216 to alanine
Text: as §1, §2

In experiment [5] the target is T5, P7 (alanine substituted, FIG. 3 panel E).
T5 construct: not the overlapping peptide P7 of panels A and C; also called E217 to alanine
Text: as §1, §2

The target in experiment [6] is T6, P9 (alanine substituted, FIG. 3 panel E).
T6 construct: also called N219 to alanine
Text: as §1, §2

Experiment [7] deals with T7, P15 (alanine substituted, FIG. 3 panel E).
T7 construct: also called Q225 to alanine
Text: as §1, §2

Experiment [8] addresses T8, P19 (alanine substituted, FIG. 3 panel E).
T8 construct: also called Q229 to alanine
Text: as §1, §2

Experiment [9] concerns the target T9, P20 (alanine substituted, FIG. 3 panel E).
T9 construct: also called E230 to alanine
Text: as §1, §2

In experiment [10] the target is T10, P23 (alanine substituted, FIG. 3 panel E).
T10 construct: also called D233 to alanine
Text: as §1, §2

The target of experiment [11] is T11, P25 (alanine substituted, FIG. 3 panel E).
T11 construct: also called V235 to alanine
Text: as §1, §2

Experiment [12] concerns the target T12, P26 (alanine substituted, FIG. 3 panel E).
T12 construct: also called Y236 to alanine
Text: as §1, §2

The target in experiment [13] is T13, P28 (alanine substituted, FIG. 3 panel E).
T13 construct: also called H238 to alanine
Text: as §1, §2

Experiment [14] deals with T14, alanine substituted peptide P12 (F222 to alanine) (human).
T14 construct: The entry already carries the substitution
Text: as §1, §2

In experiment [15] the target is T15, alanine substituted peptide with P223 replaced by alanine (P13 of FIG. 3 panel E) (human).
T15 construct: The text names only the residue P223
Text: as §1, §2

T3 sequence (peptide, as listed by the source): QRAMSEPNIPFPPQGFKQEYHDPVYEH
T9 sequence (peptide, as listed by the source): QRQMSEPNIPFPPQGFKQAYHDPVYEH
T15 sequence (peptide, as listed by the source): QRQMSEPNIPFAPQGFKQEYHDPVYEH
T6 sequence (peptide, as listed by the source): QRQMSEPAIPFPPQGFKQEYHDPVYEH
T5 sequence (peptide, as listed by the source): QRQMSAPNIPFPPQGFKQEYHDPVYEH
T11 sequence (peptide, as listed by the source): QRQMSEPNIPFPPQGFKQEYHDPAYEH
T8 sequence (peptide, as listed by the source): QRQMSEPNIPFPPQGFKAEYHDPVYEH
T1 sequence (peptide, as listed by the source): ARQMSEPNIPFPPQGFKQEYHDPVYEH
T14 sequence (peptide, as listed by the source): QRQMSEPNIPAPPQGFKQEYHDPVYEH
T7 sequence (peptide, as listed by the source): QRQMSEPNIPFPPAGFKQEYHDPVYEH
T4 sequence (peptide, as listed by the source): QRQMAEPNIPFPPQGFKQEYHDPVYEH
T13 sequence (peptide, as listed by the source): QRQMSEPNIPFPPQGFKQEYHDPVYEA
T2 sequence (peptide, as listed by the source): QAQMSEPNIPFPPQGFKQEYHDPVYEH
T10 sequence (peptide, as listed by the source): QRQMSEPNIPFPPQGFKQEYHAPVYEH
T12 sequence (peptide, as listed by the source): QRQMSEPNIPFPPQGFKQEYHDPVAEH

B1: ETV1 rabbit monoclonal antibody (29E4) (antibody, V domains shown)
VH: QELEESGGDLVKPGASLTLTCTASGFFFSAENHICWVRQAPGKGLEWIGCVYIGSYVGGSGDPYYASWAKGRFTISKTSSTTVTLQMSSLTAADTATYFCARDLGSLWGPGTLVTVSS
VL: DVVMTQTASSVSAAVGGTVTIACQSSQSVYDNNNLAWFQQKPGQPPKRLIYSASTLASGVSSRFKGSGYGTQFTLTISDVQCDDAATYYCVGAFSGYIFVFGGGTEVVVK
notes: constant regions are not; also called 29E4 mAb; ETV1 29E4 mAb
With B1, the binding result in experiment [1], in experiment [2], in [3], in experiment [4], in experiment [5] and in experiment [6] was “binds” in each case. Moreover, the binding result in [7], in experiment [8], in experiment [9], in [10], in [11] and in experiment [12] was “binds” in each case. Further, the binding result in experiment [13] is reported as “binds”; in [14] it was “no binding (tested: 40 ng/mL)”; in experiment [15], “binds”.

These data come from patent publication US20260227403A1 (HENRY M JACKSON FOUNDATION FOR THE ADVANCEMENT OF MILITARY …, published 2026).
